Results on 3 substances are retold here after article PMC6010298.

Series [1] relates to ComE D58E (Hisx6) (Streptococcus pneumoniae R801). Description: EMSA. A general note: In EMSA bound probe runs differently from free probe, usually more slowly.
In series [2] the test system is ComE T128A (Hisx6) (Streptococcus pneumoniae R801). Description: EMSA.
Series [3] relates to ComE T128E (Hisx6) (Streptococcus pneumoniae R801). Description: EMSA.
The subject of series [4] is ComE wt (Hisx6) (Streptococcus pneumoniae R801). Description: EMSA.
Series [5] concerns the target His6-tagged ComE (response regulator ComE, wild type). Description: Sandwich fluorescence-linked immunosorbent assay (FLISA). Particulars: no added salt stated (50 mM Bis-Tris-Propane-HCl, 1 mM MgCl2), 1 mM MgCl2, pH 7.8 or the same buffer at pH 6.0.
Series [6] deals with His6-tagged ComE T128A (non-phosphorylatable) T128A. The series is described as above. Particulars: no added salt stated (50 mM Bis-Tris-Propane-HCl, 1 mM MgCl2), 1 mM MgCl2, pH 7.8 or the same buffer at pH 6.0.
Series [7] addresses His6-tagged ComE T128E (phosphomimetic) T128E. Described as above. Particulars: no added salt stated (50 mM Bis-Tris-Propane-HCl, 1 mM MgCl2), 1 mM MgCl2, pH 7.8 or the same buffer at pH 6.0.
Where [8] appears, read: pH 6.0, 37°C (binding step, 1 h).
Setting [9] is: pH 7.8, 37°C (binding step, 1 h).

As usually defined, the Kd is the equilibrium constant for the complex coming apart. Turning to pcomC (comCDE promoter), the Kd in series [1] was 21 nM; in series [2] it was 375 nM; in series [3], 74 nM; in series [4] it was 371 nM.

As for GST-StkP K42M (kinase-inactive) K42M, the K1/2 worked out at 55 ng in series [5] (setting [8]), 140 ng in series [5] (setting [9]), 100 ng in series [6] (setting [8]) and 80 ng in series [6] (setting [9]).

With “GST-StkP (serine/threonine protein kinase StkP, wild type)”, the K1/2 amounted to 94 ng in series [5] (setting [8]); 330 ng in series [5] (setting [9]); 100 ng in series [6] (setting [8]); 110 ng in series [6] (setting [9]); 3200 ng in series [7] (setting [8]); 900 ng in series [7] (setting [9]).
